One data set concerns the target T1, AmRha (Aspergillus mulundensis, UniProt A0A3D8R006).
T1 construct: gene DSM5745_09107; full-length synthetic gene (2589 bp, 862 aa); native-like purification (ammonium sulphate, DEAE)
T1 sequence (A0A3D8R006 1-862): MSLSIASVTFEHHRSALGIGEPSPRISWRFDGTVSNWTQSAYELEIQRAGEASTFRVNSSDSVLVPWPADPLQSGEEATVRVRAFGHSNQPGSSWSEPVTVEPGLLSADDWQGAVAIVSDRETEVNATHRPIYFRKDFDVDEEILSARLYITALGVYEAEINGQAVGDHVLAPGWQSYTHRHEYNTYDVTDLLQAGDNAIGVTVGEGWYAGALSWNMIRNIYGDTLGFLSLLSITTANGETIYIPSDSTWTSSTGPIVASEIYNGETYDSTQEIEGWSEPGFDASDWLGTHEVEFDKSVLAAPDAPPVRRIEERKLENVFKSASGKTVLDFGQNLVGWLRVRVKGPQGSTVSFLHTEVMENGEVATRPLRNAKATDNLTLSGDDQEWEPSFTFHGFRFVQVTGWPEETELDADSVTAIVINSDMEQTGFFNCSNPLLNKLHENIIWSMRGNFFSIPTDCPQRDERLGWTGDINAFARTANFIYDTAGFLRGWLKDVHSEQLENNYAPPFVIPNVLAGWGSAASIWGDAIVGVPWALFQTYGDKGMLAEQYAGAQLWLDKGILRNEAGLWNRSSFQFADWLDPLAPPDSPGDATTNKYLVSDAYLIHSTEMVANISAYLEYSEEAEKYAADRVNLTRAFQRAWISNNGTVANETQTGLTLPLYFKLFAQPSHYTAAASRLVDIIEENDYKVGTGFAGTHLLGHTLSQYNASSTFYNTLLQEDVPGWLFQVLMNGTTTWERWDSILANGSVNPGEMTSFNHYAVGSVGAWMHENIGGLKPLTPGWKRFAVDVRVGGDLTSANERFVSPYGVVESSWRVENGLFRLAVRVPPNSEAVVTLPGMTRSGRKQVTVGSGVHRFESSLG
Briefly: residual activity on pNPR, […] nm. It is filed as biochemical. The note with it: read-out: remaining enzyme activity at 5 mM.

Substrate in data set [1]: C[C@@H]1O[C@@H](Oc2ccc([N+](=O)[O-])cc2)[C@H](O)[C@H](O)[C@H]1O
The data set is described as follows: purified protein. It is filed as biochemical, Aspergillus mulundensis. The note with it: pH 5.5, 65 °C, 50 mM sodium phosphate.

Substrate in data set [2]: COc1ccc(-c2oc3c(CC=C(C)C)c(O[C@@H]4O[C@H](CO)[C@@H](O)[C@H](O)[C@H]4O)cc(O)c3c(=O)c2O[C@@H]2O[C@@H](C)[C@H](O)[C@@H](O)[C@H]2O[C@@H]2O[C@@H](C)[C@H](O)[C@@H](O)[C@H]2O)cc1
Briefly: purified protein. The following applies: hydrolysis of terminal alpha-1,2-rhamnose to icariin; kinetic conditions not stated.

We go through 2 molecules from paper PMC10311867 (Biotechnology for Biofuels and Bioproducts, 2023).

Regarding `C[C@@H]1OC(O)[C@H](O)[C@H](O)[C@H]1O` (stereo partly drawn) [L-rhamnose], the remaining activity (in general, the signal under treatment as a percentage of the control signal) at 5000 µM at AmRha is 49.7%.

B1: AmRha (Aspergillus mulundensis) (protein)
chain: T1 sequence (A0A3D8R006 1-862)
notes: full-length synthetic gene (2589 bp, 862 aa); native-like purification (ammonium sulphate, DEAE)
For B1, in the data set “purified protein [1]”, the Km (as a rule, the concentration of substrate that gives half-maximal velocity) came out at 0.30 mM and the kcat (commonly the maximal rate divided by the concentration of active sites) turned out to be 900.34 s⁻¹. Besides, in the data set “purified protein [2]”, the Km was determined as 6.96 mM and the kcat turned out to be 37.11 s⁻¹.
